# According to article PMC10570038:
# pKd: −log10 of the molar value. Where “and” joins values, the source holds several entries; their conditions need not be identical. Identical values can stand only once.
# How the values were obtained:
# RBPMS-A FL (rat) = RBPMS-A FL (rat) (UniProt A0A8I6G705); experiment: EMSA; settings: no binding in 0-6 uM; EMSA: 10 nM RNA, 25 mM HEPES pH 7.9, 100 mM KCl, 2 mM MgCl2, 0.625 mM DTT, 0.1 mg/ml BSA, 5% glycerol, 30 C 1 h, then 5 mg/ml heparin 10 min; 5% native PAGE in …
# [1] = target: recombinant untagged rat RBPMS-A ΔC20 (rat); experiment: cross-linking; glycerol gradients supplemented with a glutaraldehyde cross-linker (GraFix)
# [2] = target: recombinant untagged rat RBPMS-A ΔC20 (rat); experiment: AUC; sedimentation velocity, 40 000 rpm, 20°C, 20 mM HEPES, 1 mM TCEP, pH 7.9, 60 mM KCl; FL 0.7, 0.48, 0.24, 0.11 mg/ml; ΔC20 0.5 or 0.1 mg/ml; continuous c(s) model
# [3] = target: recombinant untagged rat RBPMS-A ΔC20 (rat); experiment: SEC; size exclusion chromatography of purified untagged recombinant protein; compared with size markers (443 kDa marker, void volume)
# [4] = target: recombinant untagged rat RBPMS-A ΔC20 (rat); experiment: AUC; sedimentation velocity, 40 000 rpm, 20°C, 20 mM HEPES, 1 mM TCEP, pH 7.9, 500 mM KCl; FL and ΔC20 at equal molar concentration (0.46 and 0.57 mg/ml); continuous c(s) model
Substance,pKd (RBPMS-A FL (rat)),stoichiometry N [1],stoichiometry N [2],percent eluting as dimer [3] [%],stoichiometry N [3],stoichiometry N [4]
GUCUACGCACCCUCAACCCGCACCUUGCGGGAUG [(CAC)2],< 5.22,–,–,–,–,–
recombinant untagged rat RBPMS-A ΔC20 (domain or fragment),–,3 and 4,2 and 3,96,2,2
